{
  "source": "patent US20070299011A1",
  "about": "(TSINGHUA UNIVERSITY, published 2007)",
  "binders": {"B1": {"name": "HA-168 deletion mutant 118-264AA (other)", "chain": "GHPPTALESVMLGVGSRSVAGVCMSPITVIKTRYESGKYGYESIYAALRSIYHSEGHRGLFSGLTATLLRDAPFSGIYLMFYNQTKNIVPHDQVDATLIPITNFSCGIFAGILASLVTQPAGVIKTHMQLYPLKFQWIGQAVTLIFK", "notes": "not shown: HA tag"}},
  "target": "T1, myc-tagged APP-AICD(C99) (UniProt P05067 672-770)",
  "T1 construct": "domain: APP-AICD(C99); also called APP-AID(C99); not shown: myc tag",
  "experiment": "co-IP from 293T lysate: anti-myc IP, anti-HA Western blot",
  "data": [
    {"binder": "B1", "values": [
      {"measurement": "binding result", "value": "binds"}
    ]}
  ]
}
